# Values quoted from earlier work as cited in paper PMC9090500.
# Molecular target: IL18 (Homo sapiens) (UniProt Q14116)
# Sequence (Q14116 37-193): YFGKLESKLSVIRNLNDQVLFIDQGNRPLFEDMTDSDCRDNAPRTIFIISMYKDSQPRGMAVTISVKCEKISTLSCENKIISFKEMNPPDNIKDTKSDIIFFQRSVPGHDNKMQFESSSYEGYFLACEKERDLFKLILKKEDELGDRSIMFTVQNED
# Sequence of IL18BP (O95998 31-194): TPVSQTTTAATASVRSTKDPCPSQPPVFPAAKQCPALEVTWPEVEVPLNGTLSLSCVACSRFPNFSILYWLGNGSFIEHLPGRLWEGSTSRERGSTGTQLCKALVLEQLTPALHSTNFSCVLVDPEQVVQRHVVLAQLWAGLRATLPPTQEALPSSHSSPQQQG
substance,measurement,value
IL18BP (from UniProt O95998),Kd,400 nM
